Consider 29 molecules from patent publication US20030232420A1 (SEQUENOM, published 2003).

What all share (experiment): SPOT peptide array, anti-GFP detection
Assay [1] addresses T1, GFP-RIα D/D (bovine, UniProt P00514 1-109).
T1 construct: range 1-109; His tag cleaved with thrombin; also called dimerization/docking (D/D) domain of bovine RIα (residues 1-109) fused to GFP; not shown: green fluorescent protein (GFP)
The procedure:
(§1) In addition, the minimal sequence required for regulatory subunit binding was also assessed using N- and C-terminal truncations of the 27-residue human D-AKAP2 sequence. N-terminal or C-terminal truncated peptides were synthesized using SPOT synthesis on cellulose membrane as described herein. Binding was evaluated by incubating each membrane with GFP-RIα D/D and GFP-RIIα D/D as indicated below. The dimerization/docking (D/D) domain of bovine RIα (residues 1-109) and mouse RIIα (residues 1-46), fused to green fluorescence protein (GFP) were subcloned into a pRSET expression vector (Invitrogen, Carlsbad, Calif.) downstream of a histidine tag. The proteins, GFP-RIα D/D and GFP-RIIα D/D were expressed in E. coli BL21 (DE3) and purified using Talon (Clontech, Palo Alto, Calif.) resin. The His tag was cleaved using thrombin and the protein further purified using an S75-Sephadex (16/60) gel filtration column (Pharmacia, Peapack, N.J.) in 50 mM MES pH 5.8, 50 mM NaCl, 2 mM EDTA, 2 mM EGTA, 2 mM DTT. The protein was stored at 4° C.
(§2) Bound protein was detected using a primary antibody against GFP and enzyme conjugated secondary antibody for amplification of signal. The membrane was then analyzed by chemiluminescence.

The target in assay [2] is T2, GFP-RIIα D/D (mouse, UniProt P12367 1-46).
T2 construct: range 1-46; His tag cleaved with thrombin; also called GFP-RII D/D; D/D domain of mouse RIIα (residues 1-46) fused to GFP; not shown: green fluorescent protein (GFP)
T2 sequence (P12367 1-46): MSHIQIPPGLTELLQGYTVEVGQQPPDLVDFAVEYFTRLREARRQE
As to the method:
as §1, §2

Assay [3] has as its target T1, GFP-RIα D/D. This is another data set of the same source.
Assay [4] concerns the target T2, GFP-RIIα D/D. The source holds these as a separate data set.

Where two headings read alike, the source gives them in different places. Ends that are not written are not given here.

T1 sequence (P00514 1-109): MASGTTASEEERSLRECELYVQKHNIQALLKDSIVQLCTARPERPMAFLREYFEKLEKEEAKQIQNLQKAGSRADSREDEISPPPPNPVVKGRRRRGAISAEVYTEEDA

B1: SEQ ID NO:96 peptide (peptide)
peptide: VQGNTDEAQEELA
modifications: also: cellulose-bound
Consider B1, for which the binding result in the assay with GFP-RIα D/D [1] and in the assay with GFP-RIIα D/D [2] was “no binding” throughout.

B2: SEQ ID NO:95 peptide (peptide)
peptide: VQGNTDEAQEELAW
modifications: also: cellulose-bound
On to B2, for which the binding result in the assay with GFP-RIα D/D [1] and with GFP-RIIα D/D [2] was “no binding” in each case.

B3: SEQ ID NO:75 peptide (peptide)
peptide: ELAWKIAKMIVSDIMQQ
modifications: also: cellulose-bound
With B3, the binding result in the assay with GFP-RIα D/D [3] and with GFP-RIIα D/D [4] was “binds” in each case.

B4: SEQ ID NO:90 peptide (peptide)
peptide: VQGNTDEAQEELAWKIAKM
modifications: also: cellulose-bound
As to B4, the binding result with GFP-RIα D/D [1] and with GFP-RIIα D/D [2] was “no binding” in each case.

B5: SEQ ID NO:66 peptide (peptide)
peptide: QGNTDEAQEELAWKIAKMIVSDIMQQ
modifications: also: cellulose-bound
On to B5, for which the binding result with GFP-RIα D/D [3] and in the assay with GFP-RIIα D/D [4] was “binds” each time.

B6: SEQ ID NO:88 peptide (peptide)
peptide: VQGNTDEAQEELAWKIAKMIV
modifications: also: cellulose-bound
For the molecule B6, the binding result with GFP-RIα D/D [1] was “no binding”; with GFP-RIIα D/D [2] it was “binds”.

B7: SEQ ID NO:74 peptide (peptide)
peptide: EELAWKIAKMIVSDIMQQ
modifications: also: cellulose-bound
For B7, the binding result with GFP-RIα D/D [3] and in the assay with GFP-RIIα D/D [4] was “binds” throughout.

B8: SEQ ID NO:72 peptide (peptide)
peptide: AQEELAWKIAKMIVSDIMQQ
modifications: also: cellulose-bound
B8: the binding result with GFP-RIα D/D [3] and with GFP-RIIα D/D [4] was “binds” in each case.

B9: SEQ ID NO:68 peptide (peptide)
peptide: NTDEAQEELAWKIAKMIVSDIMQQ
modifications: also: cellulose-bound
With B9, the binding result with GFP-RIα D/D [3] and with GFP-RIIα D/D [4] was “binds” in each case.

B10: SEQ ID NO:99 peptide (peptide)
peptide: VQGNTDEAQE
modifications: also: cellulose-bound
As for B10, the binding result in the assay with GFP-RIα D/D [1] and with GFP-RIIα D/D [2] was “no binding” throughout.

B11: SEQ ID NO:93 peptide (peptide)
peptide: VQGNTDEAQEELAWKI
modifications: also: cellulose-bound
In the case of B11, the binding result in the assay with GFP-RIα D/D [1] and in the assay with GFP-RIIα D/D [2] was “no binding” throughout.

B12: SEQ ID NO:89 peptide (peptide)
peptide: VQGNTDEAQEELAWKIAKMI
modifications: also: cellulose-bound
With B12, the binding result with GFP-RIα D/D [1] and with GFP-RIIα D/D [2] was “no binding” each time.

B13: SEQ ID NO:67 peptide (peptide)
peptide: GNTDEAQEELAWKIAKMIVSDIMQQ
modifications: also: cellulose-bound
For the molecule B13, the binding result with GFP-RIα D/D [3] and with GFP-RIIα D/D [4] was “binds” in each case.

B14: SEQ ID NO:69 peptide (peptide)
peptide: TDEAQEELAWKIAKMIVSDIMQQ
modifications: also: cellulose-bound
B14: the binding result in the assay with GFP-RIα D/D [3] and in the assay with GFP-RIIα D/D [4] was “binds” in each case.

B15: SEQ ID NO:71 peptide (peptide)
peptide: EAQEELAWKIAKMIVSDIMQQ
modifications: also: cellulose-bound
Regarding B15, the binding result with GFP-RIα D/D [3] and in the assay with GFP-RIIα D/D [4] was “binds” each time.

B16: SEQ ID NO:70 peptide (peptide)
peptide: DEAQEELAWKIAKMIVSDIMQQ
modifications: also: cellulose-bound
As for B16, the binding result with GFP-RIα D/D [3] and in the assay with GFP-RIIα D/D [4] was “binds” in each case.

B17: SEQ ID NO:98 peptide (peptide)
peptide: VQGNTDEAQEE
modifications: also: cellulose-bound
B17: the binding result with GFP-RIα D/D [1] and in the assay with GFP-RIIα D/D [2] was “no binding” in each case.

B18: SEQ ID NO:76 peptide (peptide)
peptide: LAWKIAKMIVSDIMQQ
modifications: also: cellulose-bound
With B18, the binding result in the assay with GFP-RIIα D/D [4] is “binds”.

B19: SEQ ID NO:83 peptide (peptide)
peptide: VQGNTDEAQEELAWKIAKMIVSDIMQ
modifications: also: cellulose-bound
As to B19, the binding result with GFP-RIα D/D [1] and with GFP-RIIα D/D [2] was “binds” throughout.

B20: SEQ ID NO:94 peptide (peptide)
peptide: VQGNTDEAQEELAWK
modifications: also: cellulose-bound
In the case of B20, the binding result in the assay with GFP-RIα D/D [1] and in the assay with GFP-RIIα D/D [2] was “no binding” each time.

B21: SEQ ID NO:91 peptide (peptide)
peptide: VQGNTDEAQEELAWKIAK
modifications: also: cellulose-bound
Turning to B21, the binding result in the assay with GFP-RIα D/D [1] and in the assay with GFP-RIIα D/D [2] was “no binding” in each case.

B22: SEQ ID NO:87 peptide (peptide)
peptide: VQGNTDEAQEELAWKIAKMIVS
modifications: also: cellulose-bound
On to B22, for which the binding result in the assay with GFP-RIα D/D [1] was “no binding”; with GFP-RIIα D/D [2] it was “binds”.

B23: SEQ ID NO:73 peptide (peptide)
peptide: QEELAWKIAKMIVSDIMQQ
modifications: also: cellulose-bound
For B23, the binding result with GFP-RIα D/D [3] and with GFP-RIIα D/D [4] was “binds” throughout.

B24: SEQ ID NO:97 peptide (peptide)
peptide: VQGNTDEAQEEL
modifications: also: cellulose-bound
On to B24, for which the binding result with GFP-RIα D/D [1] and with GFP-RIIα D/D [2] was “no binding” each time.

B25: SEQ ID NO:92 peptide (peptide)
peptide: VQGNTDEAQEELAWKIA
modifications: also: cellulose-bound
Turning to B25, the binding result with GFP-RIα D/D [1] and with GFP-RIIα D/D [2] was “no binding” each time.

B26: SEQ ID NO:77 peptide (peptide)
peptide: AWKIAKMIVSDIMQQ
modifications: also: cellulose-bound
With B26, the binding result with GFP-RIIα D/D [4] was “binds”.

B27: SEQ ID NO:85 peptide (peptide)
peptide: VQGNTDEAQEELAWKIAKMIVSDI
modifications: also: cellulose-bound
For B27, the binding result with GFP-RIα D/D [1] and with GFP-RIIα D/D [2] was “binds” throughout.

B28: SEQ ID NO:84 peptide (peptide)
peptide: VQGNTDEAQEELAWKIAKMIVSDIM
modifications: also: cellulose-bound
In the case of B28, the binding result in the assay with GFP-RIα D/D [1] and with GFP-RIIα D/D [2] was “binds” each time.

B29: SEQ ID NO:86 peptide (peptide)
peptide: VQGNTDEAQEELAWKIAKMIVSD
modifications: also: cellulose-bound
Consider B29, for which the binding result in the assay with GFP-RIα D/D [1] is recorded as “no binding”; in the assay with GFP-RIIα D/D [2], “binds”.
